Source: patent US20200181257A1 (Chugai, published 2020)

T1: human Fcγ receptor hFcgRIIa (R) (human, UniProt P12318 36-217)
T1 construct: also called FcγRIIa (type R); FcγIIA
T1 chain: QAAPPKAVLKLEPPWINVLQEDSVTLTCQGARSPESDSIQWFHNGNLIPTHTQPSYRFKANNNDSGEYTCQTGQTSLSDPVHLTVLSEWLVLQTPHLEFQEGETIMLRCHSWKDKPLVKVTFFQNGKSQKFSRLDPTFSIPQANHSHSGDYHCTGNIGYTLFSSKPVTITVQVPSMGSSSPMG

T2: human Fcγ receptor hFcgRIIa (H) (human, UniProt P12318 36-217)
T2 construct: also called FcγRIIa (type H); FcγIIA
T2 sequence: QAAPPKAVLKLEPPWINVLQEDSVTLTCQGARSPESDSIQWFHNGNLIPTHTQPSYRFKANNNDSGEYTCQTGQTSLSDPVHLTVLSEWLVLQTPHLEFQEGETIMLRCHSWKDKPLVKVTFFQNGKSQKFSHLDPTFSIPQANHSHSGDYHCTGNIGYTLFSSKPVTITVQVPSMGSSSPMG

T3: human Fcγ receptor hFcgRIIb (human, UniProt P31994 43-217, limits assumed)
T3 construct: Construct used in the SPR assay is not described; also called FcγRIIb; FcγIIB
T3 sequence: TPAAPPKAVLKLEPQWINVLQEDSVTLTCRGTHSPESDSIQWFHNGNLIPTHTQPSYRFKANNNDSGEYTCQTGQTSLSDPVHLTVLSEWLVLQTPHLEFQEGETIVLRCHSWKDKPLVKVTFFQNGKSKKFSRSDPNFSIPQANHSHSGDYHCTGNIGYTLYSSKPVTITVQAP


Legend:
Experiment in all cases: SPR, antibody captured on Protein A
[1] = biological target: T1, human Fcγ receptor hFcgRIIa (R)
Description: (§1) Furthermore, binding ability to hFcgRs was measured by the method described in Reference Example 3.
(§2) Interactions between antibodies and hFcgRs (hFcgRIa, hFcgRIIa(R), hFcgRIIa(H), hFcgRIIb, hFcgRIIIa(F), and hFcgRIIIa(V)) were analyzed using Biacore T100 (GE Healthcare). HBS-EP+(GE Healthcare) was used for the running buffer, and the measurement temperature was set at 25° C. Protein A (Invitrogen) was immobilized by the amino coupling method, and an antibody of interest was captured thereon. Then, hFcγR solutions diluted using the running buffer were injected to allow interaction with the captured antibody at a flow rate of 30 μL/min for five minutes for hFcγRIa, and at a flow rate of 5 μL/min for one minute for the other hFcγRs. […] Since the hFcγR binding level depends on the amount of captured antibodies, the FcgR-binding levels were corrected so that the capture level of each antibody would be 200 RU (resonance unit) for hFcgRIa and 1000 RU (resonance unit) for the other hFcgRs. The captured antibodies were washed by allowing 10 mM glycine-HCl (pH 1.5) to react for 30 seconds at a flow rate of 30 μL/min to recycle the chip for reuse.

[2] = biological target: T2, human Fcγ receptor hFcgRIIa (H)
Description: as §1, §2

[3] = biological target: T4, human Fcγ receptor hFcgRIa (human, UniProt P12314 16-292, limits assumed)
T4 construct: Construct used in the SPR assay is not described; also called hFcγRIa; FcγI
Description: as §1, §2

[4] = biological target: T5, human Fcγ receptor hFcgRIIIa (V) (human, UniProt P08637 17-208)
T5 construct: also called FcγRIIIa allotype V158; FcγIIIA
Description: as §1, §2

[5] = biological target: T3, human Fcγ receptor hFcgRIIb
Description: as §1, §2

T5 sequence (P08637 other isoform, or with tags, fused parts or gaps limits assumed): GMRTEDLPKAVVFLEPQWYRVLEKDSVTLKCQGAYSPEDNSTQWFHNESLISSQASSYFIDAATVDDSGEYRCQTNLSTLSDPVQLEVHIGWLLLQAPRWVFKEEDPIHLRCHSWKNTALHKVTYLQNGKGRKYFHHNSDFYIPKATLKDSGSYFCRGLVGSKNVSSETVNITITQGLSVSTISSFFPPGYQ
T4 sequence (P12314 16-292 limits assumed): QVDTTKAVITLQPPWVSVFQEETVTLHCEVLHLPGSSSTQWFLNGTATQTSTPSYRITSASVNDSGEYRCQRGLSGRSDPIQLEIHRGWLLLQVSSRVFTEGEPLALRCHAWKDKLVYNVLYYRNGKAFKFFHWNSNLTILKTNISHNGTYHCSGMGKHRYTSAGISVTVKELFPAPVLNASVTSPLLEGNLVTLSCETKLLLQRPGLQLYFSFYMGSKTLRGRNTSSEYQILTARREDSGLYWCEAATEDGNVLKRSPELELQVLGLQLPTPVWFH

Row | binding relative to G1 (=100) [1] | binding relative to G1 (=100) [2] | binding relative to G1 (=100) [3] | binding relative to G1 (=100) [4] | binding relative to G1 (=100) [5] | Binder
1 | 1.2 | 0.2 | 0.1 | 1.1 | 3.8 | TS30 (antibody, anti-IL6R IgG1, G1d with L234K/L235K/S239K/Q295M/Y296G/S298G/N325G (EU)) heavy: QVQLQESGPGLVRPSQTLSLTCTVSGYSITSDHAWSWVRQPPGRGLEWIGYISYSGITTYNPSLKSRVTMLRDTSKNQFSLRLSSVTAADTAVYYCARSLARTTAMDYWGQGSLVTVSSASTKGPSVFPLAPSSKSTSGGTAALGCLVKDYFPEPVTVSWNSGALTSGVHTFPAVLQSSGLYSLSSVVTVPSSSLGTQTYICNVNHKPSNTKVDKKVEPKSCDKTHTCPPCPAPEKKGGPKVFLFPPKPKDTLMISRTPEVTCVVVDVSHEDPEVKFNWYVDGVEVHNAKTKPREEMGNGTYRVVSVLTVLHQDWLNGKEYKCKVSGKALPAPIEKTISKAKGQPREPQVYTLPPSRDELTKNQVSLTCLVKGFYPSDIAVEWESNGQPENNYKTTPPVLDSDGSFFLYSKLTVDKSRWQQGNVFSCSVMHEALHNHYTQKSLSLSP light: not shown
2 | 0.9 | 1 | -0.5 | 0.9 | 1.5 | TS32 (antibody, anti-IL6R IgG1, G1d with L234K/L235K/H268K/D270F/Q295M/Y296G/S298G/N325G (EU)) heavy: QVQLQESGPGLVRPSQTLSLTCTVSGYSITSDHAWSWVRQPPGRGLEWIGYISYSGITTYNPSLKSRVTMLRDTSKNQFSLRLSSVTAADTAVYYCARSLARTTAMDYWGQGSLVTVSSASTKGPSVFPLAPSSKSTSGGTAALGCLVKDYFPEPVTVSWNSGALTSGVHTFPAVLQSSGLYSLSSVVTVPSSSLGTQTYICNVNHKPSNTKVDKKVEPKSCDKTHTCPPCPAPEKKGGPSVFLFPPKPKDTLMISRTPEVTCVVVDVSKEFPEVKFNWYVDGVEVHNAKTKPREEMGNGTYRVVSVLTVLHQDWLNGKEYKCKVSGKALPAPIEKTISKAKGQPREPQVYTLPPSRDELTKNQVSLTCLVKGFYPSDIAVEWESNGQPENNYKTTPPVLDSDGSFFLYSKLTVDKSRWQQGNVFSCSVMHEALHNHYTQKSLSLSP light: not shown
3 | 1 | 0.7 | -0.4 | 1.1 | 4.1 | TS36 (antibody, anti-IL6R IgG1, G1d with L234K/L235R/S239K/H268K/D270F/Q295M/Y296G/S298G/N325G (EU)) heavy: QVQLQESGPGLVRPSQTLSLTCTVSGYSITSDHAWSWVRQPPGRGLEWIGYISYSGITTYNPSLKSRVTMLRDTSKNQFSLRLSSVTAADTAVYYCARSLARTTAMDYWGQGSLVTVSSASTKGPSVFPLAPSSKSTSGGTAALGCLVKDYFPEPVTVSWNSGALTSGVHTFPAVLQSSGLYSLSSVVTVPSSSLGTQTYICNVNHKPSNTKVDKKVEPKSCDKTHTCPPCPAPEKRGGPKVFLFPPKPKDTLMISRTPEVTCVVVDVSKEFPEVKFNWYVDGVEVHNAKTKPREEMGNGTYRVVSVLTVLHQDWLNGKEYKCKVSGKALPAPIEKTISKAKGQPREPQVYTLPPSRDELTKNQVSLTCLVKGFYPSDIAVEWESNGQPENNYKTTPPVLDSDGSFFLYSKLTVDKSRWQQGNVFSCSVMHEALHNHYTQKSLSLSP light: not shown
4 | 1.3 | -0.5 | 0.2 | 1.2 | 3.6 | TS31 (antibody, anti-IL6R IgG1, G1d with L234K/L235K/S239K/Q295M/Y296G/S298G/N325H (EU)) heavy: QVQLQESGPGLVRPSQTLSLTCTVSGYSITSDHAWSWVRQPPGRGLEWIGYISYSGITTYNPSLKSRVTMLRDTSKNQFSLRLSSVTAADTAVYYCARSLARTTAMDYWGQGSLVTVSSASTKGPSVFPLAPSSKSTSGGTAALGCLVKDYFPEPVTVSWNSGALTSGVHTFPAVLQSSGLYSLSSVVTVPSSSLGTQTYICNVNHKPSNTKVDKKVEPKSCDKTHTCPPCPAPEKKGGPKVFLFPPKPKDTLMISRTPEVTCVVVDVSHEDPEVKFNWYVDGVEVHNAKTKPREEMGNGTYRVVSVLTVLHQDWLNGKEYKCKVSHKALPAPIEKTISKAKGQPREPQVYTLPPSRDELTKNQVSLTCLVKGFYPSDIAVEWESNGQPENNYKTTPPVLDSDGSFFLYSKLTVDKSRWQQGNVFSCSVMHEALHNHYTQKSLSLSP light: not shown
5 | 1.2 | 0.7 | -0.9 | 1 | 4.6 | TS33 (antibody, anti-IL6R IgG1, G1d with L234K/L235K/H268K/D270F/Q295M/Y296G/S298G/N325H (EU)) heavy: QVQLQESGPGLVRPSQTLSLTCTVSGYSITSDHAWSWVRQPPGRGLEWIGYISYSGITTYNPSLKSRVTMLRDTSKNQFSLRLSSVTAADTAVYYCARSLARTTAMDYWGQGSLVTVSSASTKGPSVFPLAPSSKSTSGGTAALGCLVKDYFPEPVTVSWNSGALTSGVHTFPAVLQSSGLYSLSSVVTVPSSSLGTQTYICNVNHKPSNTKVDKKVEPKSCDKTHTCPPCPAPEKKGGPSVFLFPPKPKDTLMISRTPEVTCVVVDVSKEFPEVKFNWYVDGVEVHNAKTKPREEMGNGTYRVVSVLTVLHQDWLNGKEYKCKVSHKALPAPIEKTISKAKGQPREPQVYTLPPSRDELTKNQVSLTCLVKGFYPSDIAVEWESNGQPENNYKTTPPVLDSDGSFFLYSKLTVDKSRWQQGNVFSCSVMHEALHNHYTQKSLSLSP light: not shown
6 | 0.9 | 0.7 | 0.6 | 0.6 | 4.5 | TS37 (antibody, anti-IL6R IgG1, G1d with L234K/L235R/S239K/H268K/D270F/Q295M/Y296G/S298G/N325H (EU)) heavy: QVQLQESGPGLVRPSQTLSLTCTVSGYSITSDHAWSWVRQPPGRGLEWIGYISYSGITTYNPSLKSRVTMLRDTSKNQFSLRLSSVTAADTAVYYCARSLARTTAMDYWGQGSLVTVSSASTKGPSVFPLAPSSKSTSGGTAALGCLVKDYFPEPVTVSWNSGALTSGVHTFPAVLQSSGLYSLSSVVTVPSSSLGTQTYICNVNHKPSNTKVDKKVEPKSCDKTHTCPPCPAPEKRGGPKVFLFPPKPKDTLMISRTPEVTCVVVDVSKEFPEVKFNWYVDGVEVHNAKTKPREEMGNGTYRVVSVLTVLHQDWLNGKEYKCKVSHKALPAPIEKTISKAKGQPREPQVYTLPPSRDELTKNQVSLTCLVKGFYPSDIAVEWESNGQPENNYKTTPPVLDSDGSFFLYSKLTVDKSRWQQGNVFSCSVMHEALHNHYTQKSLSLSP light: not shown
7 | 1.5 | 1 | 0 | 0.8 | 2.5 | TS39 (antibody, anti-IL6R IgG1, G1d with L234K/L235R/S239K/Q295M/Y296G/S298G/N325H (EU)) heavy: QVQLQESGPGLVRPSQTLSLTCTVSGYSITSDHAWSWVRQPPGRGLEWIGYISYSGITTYNPSLKSRVTMLRDTSKNQFSLRLSSVTAADTAVYYCARSLARTTAMDYWGQGSLVTVSSASTKGPSVFPLAPSSKSTSGGTAALGCLVKDYFPEPVTVSWNSGALTSGVHTFPAVLQSSGLYSLSSVVTVPSSSLGTQTYICNVNHKPSNTKVDKKVEPKSCDKTHTCPPCPAPEKRGGPKVFLFPPKPKDTLMISRTPEVTCVVVDVSHEDPEVKFNWYVDGVEVHNAKTKPREEMGNGTYRVVSVLTVLHQDWLNGKEYKCKVSHKALPAPIEKTISKAKGQPREPQVYTLPPSRDELTKNQVSLTCLVKGFYPSDIAVEWESNGQPENNYKTTPPVLDSDGSFFLYSKLTVDKSRWQQGNVFSCSVMHEALHNHYTQKSLSLSP light: not shown
8 | 0.9 | 1.4 | -0.9 | 1.5 | 4.2 | TS34 (antibody, anti-IL6R IgG1, G1d with L234K/L235K/Q295M/Y296G/S298G/N325G (EU)) heavy: QVQLQESGPGLVRPSQTLSLTCTVSGYSITSDHAWSWVRQPPGRGLEWIGYISYSGITTYNPSLKSRVTMLRDTSKNQFSLRLSSVTAADTAVYYCARSLARTTAMDYWGQGSLVTVSSASTKGPSVFPLAPSSKSTSGGTAALGCLVKDYFPEPVTVSWNSGALTSGVHTFPAVLQSSGLYSLSSVVTVPSSSLGTQTYICNVNHKPSNTKVDKKVEPKSCDKTHTCPPCPAPEKKGGPSVFLFPPKPKDTLMISRTPEVTCVVVDVSHEDPEVKFNWYVDGVEVHNAKTKPREEMGNGTYRVVSVLTVLHQDWLNGKEYKCKVSGKALPAPIEKTISKAKGQPREPQVYTLPPSRDELTKNQVSLTCLVKGFYPSDIAVEWESNGQPENNYKTTPPVLDSDGSFFLYSKLTVDKSRWQQGNVFSCSVMHEALHNHYTQKSLSLSP light: not shown
